Reference: paper PMC12990809

Experiments:
Experiment in all cases: pulldown
[1] = target: T1, tardbp (Danio rerio) (UniProt A0ACM8Q011); settings: 20 nM protein, 1.5 uM RNA pool; 20 mM HEPES pH 7.8, 70 mM KCl, 10 mM NaCl, 10% glycerol, 2 mM DTT, 0.1 ug/uL BSA; 30 min, 4 C
T1 sequence: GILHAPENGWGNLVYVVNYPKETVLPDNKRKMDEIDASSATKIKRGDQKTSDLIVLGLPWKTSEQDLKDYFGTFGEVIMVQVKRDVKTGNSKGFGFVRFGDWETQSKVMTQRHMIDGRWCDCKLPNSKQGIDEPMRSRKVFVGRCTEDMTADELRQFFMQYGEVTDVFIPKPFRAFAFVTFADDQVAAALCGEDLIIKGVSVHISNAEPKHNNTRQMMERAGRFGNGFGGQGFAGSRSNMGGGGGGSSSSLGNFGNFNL

[2] = target: T2, srsf3 (Xenopus tropicalis) (UniProt A0A8J0SH10); settings: 20 nM protein, 1.5 uM RNA pool; 20 mM HEPES pH 7.8, 70 mM KCl, 10 mM NaCl, 10% glycerol, 2 mM DTT, 0.1 ug/uL BSA; 30 min, 4 C
T2 sequence: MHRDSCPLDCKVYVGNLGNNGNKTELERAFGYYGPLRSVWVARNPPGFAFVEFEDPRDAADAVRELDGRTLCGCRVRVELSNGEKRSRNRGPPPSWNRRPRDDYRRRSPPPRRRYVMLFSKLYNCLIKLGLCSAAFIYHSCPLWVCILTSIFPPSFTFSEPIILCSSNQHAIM

[3] = target: T3, msi (Drosophila melanogaster) (UniProt H9ZJL0); settings: 20 nM protein, 1.5 uM RNA pool; 20 mM HEPES pH 7.8, 70 mM KCl, 10 mM NaCl, 10% glycerol, 2 mM DTT, 0.1 ug/uL BSA; 30 min, 4 C (protocol of this paper; not …); cited from earlier work
T3 sequence: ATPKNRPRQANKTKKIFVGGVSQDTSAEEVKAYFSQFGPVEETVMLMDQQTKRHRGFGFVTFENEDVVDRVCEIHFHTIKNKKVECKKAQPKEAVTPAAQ

[4] = target: u2af2b (Tetraodon nigroviridis) (UniProt H3CRP7); settings: 20 nM protein, 1.5 uM RNA pool; 20 mM HEPES pH 7.8, 70 mM KCl, 10 mM NaCl, 10% glycerol, 2 mM DTT, 0.1 ug/uL BSA; 30 min, 4 C
Chain of u2af2b (Tetraodon nigroviridis) (H3CRP7 entry or part of it): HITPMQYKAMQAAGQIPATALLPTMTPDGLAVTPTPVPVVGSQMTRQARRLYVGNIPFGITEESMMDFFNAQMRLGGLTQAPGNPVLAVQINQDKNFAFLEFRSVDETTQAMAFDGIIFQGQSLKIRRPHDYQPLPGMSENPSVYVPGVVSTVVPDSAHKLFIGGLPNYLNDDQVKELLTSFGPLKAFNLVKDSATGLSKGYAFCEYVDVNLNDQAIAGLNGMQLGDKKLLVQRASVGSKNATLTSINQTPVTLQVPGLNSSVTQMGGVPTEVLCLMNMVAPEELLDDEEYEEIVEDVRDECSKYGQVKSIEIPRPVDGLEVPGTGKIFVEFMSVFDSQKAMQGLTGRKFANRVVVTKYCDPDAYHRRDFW

[5] = target: T4, Tb927.5.810 S125L (Trypanosoma brucei) (UniProt Q57W26); settings: 20 nM protein, 1.5 uM RNA pool; 20 mM HEPES pH 7.8, 70 mM KCl, 10 mM NaCl, 10% glycerol, 2 mM DTT, 0.1 ug/uL BSA; 30 min, 4 C
T4 sequence: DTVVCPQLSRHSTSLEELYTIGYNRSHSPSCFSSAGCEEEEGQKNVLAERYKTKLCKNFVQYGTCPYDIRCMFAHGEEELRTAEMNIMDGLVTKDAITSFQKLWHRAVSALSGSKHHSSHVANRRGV

[6] = target: T5, RBM24 (Tetraodon nigroviridis) (UniProt H3DM38); settings: 20 nM protein, 1.5 uM RNA pool; 20 mM HEPES pH 7.8, 70 mM KCl, 10 mM NaCl, 10% glycerol, 2 mM DTT, 0.1 ug/uL BSA; 30 min, 4 C
T5 sequence: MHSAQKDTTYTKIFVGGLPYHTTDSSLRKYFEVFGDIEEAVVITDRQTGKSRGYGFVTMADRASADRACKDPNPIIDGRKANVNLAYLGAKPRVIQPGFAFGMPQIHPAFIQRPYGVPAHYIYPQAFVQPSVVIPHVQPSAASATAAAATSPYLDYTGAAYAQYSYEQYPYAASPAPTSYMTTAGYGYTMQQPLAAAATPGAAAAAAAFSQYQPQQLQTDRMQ

[7] = target: CELF4 (Homo sapiens) (UniProt Q9BZC1); settings: 20 nM protein, 1.5 uM RNA pool; 20 mM HEPES pH 7.8, 70 mM KCl, 10 mM NaCl, 10% glycerol, 2 mM DTT, 0.1 ug/uL BSA; 30 min, 4 C (protocol of this paper; not …); cited from earlier work
Chain of CELF4 (Homo sapiens) (Q9BZC1 6-486): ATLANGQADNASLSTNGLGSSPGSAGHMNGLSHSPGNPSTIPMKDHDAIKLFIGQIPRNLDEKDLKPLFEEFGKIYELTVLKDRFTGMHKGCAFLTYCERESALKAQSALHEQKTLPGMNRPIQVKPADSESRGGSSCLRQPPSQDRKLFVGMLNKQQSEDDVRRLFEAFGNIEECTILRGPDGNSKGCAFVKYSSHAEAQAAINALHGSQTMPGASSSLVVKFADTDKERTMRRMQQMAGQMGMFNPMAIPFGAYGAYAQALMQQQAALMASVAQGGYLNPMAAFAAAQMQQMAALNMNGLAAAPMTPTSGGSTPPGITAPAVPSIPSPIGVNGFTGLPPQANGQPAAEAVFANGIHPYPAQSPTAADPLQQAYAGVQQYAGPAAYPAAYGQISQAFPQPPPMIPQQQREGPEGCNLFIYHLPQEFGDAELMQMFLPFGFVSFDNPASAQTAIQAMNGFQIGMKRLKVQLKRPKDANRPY

[8] = target: MSI1 (Homo sapiens) (UniProt O43347); settings: 20 nM protein, 1.5 uM RNA pool; 20 mM HEPES pH 7.8, 70 mM KCl, 10 mM NaCl, 10% glycerol, 2 mM DTT, 0.1 ug/uL BSA; 30 min, 4 C (protocol of this paper; not …); cited from earlier work
Chain of MSI1 (Homo sapiens) (O43347 1-230): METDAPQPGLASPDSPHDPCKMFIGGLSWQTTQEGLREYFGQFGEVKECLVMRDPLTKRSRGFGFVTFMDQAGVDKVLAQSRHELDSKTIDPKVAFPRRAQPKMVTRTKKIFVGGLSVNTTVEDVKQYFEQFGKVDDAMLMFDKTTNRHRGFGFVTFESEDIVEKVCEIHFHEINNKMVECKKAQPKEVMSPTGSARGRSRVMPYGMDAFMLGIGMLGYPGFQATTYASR

[9] = target: T6, MBNL1 (Homo sapiens) (UniProt Q9NR56); settings: 20 nM protein, 1.5 uM RNA pool; 20 mM HEPES pH 7.8, 70 mM KCl, 10 mM NaCl, 10% glycerol, 2 mM DTT, 0.1 ug/uL BSA; 30 min, 4 C (protocol of this paper; not …); cited from earlier work
T6 sequence: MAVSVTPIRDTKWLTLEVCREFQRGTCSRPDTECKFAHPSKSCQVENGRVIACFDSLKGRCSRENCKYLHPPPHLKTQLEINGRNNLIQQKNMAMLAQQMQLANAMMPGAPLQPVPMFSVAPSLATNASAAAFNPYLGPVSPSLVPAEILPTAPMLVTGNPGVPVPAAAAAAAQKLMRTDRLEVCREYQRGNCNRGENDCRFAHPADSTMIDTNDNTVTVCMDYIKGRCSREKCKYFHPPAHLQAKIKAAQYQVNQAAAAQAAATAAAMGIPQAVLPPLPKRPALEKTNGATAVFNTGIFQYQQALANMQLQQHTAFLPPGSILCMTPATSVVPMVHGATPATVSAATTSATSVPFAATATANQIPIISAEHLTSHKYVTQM

[10] = target: T7, PUB1 (Saccharomyces cerevisiae) (UniProt P32588); settings: 20 nM protein, 1.5 uM RNA pool; 20 mM HEPES pH 7.8, 70 mM KCl, 10 mM NaCl, 10% glycerol, 2 mM DTT, 0.1 ug/uL BSA; 30 min, 4 C
T7 sequence: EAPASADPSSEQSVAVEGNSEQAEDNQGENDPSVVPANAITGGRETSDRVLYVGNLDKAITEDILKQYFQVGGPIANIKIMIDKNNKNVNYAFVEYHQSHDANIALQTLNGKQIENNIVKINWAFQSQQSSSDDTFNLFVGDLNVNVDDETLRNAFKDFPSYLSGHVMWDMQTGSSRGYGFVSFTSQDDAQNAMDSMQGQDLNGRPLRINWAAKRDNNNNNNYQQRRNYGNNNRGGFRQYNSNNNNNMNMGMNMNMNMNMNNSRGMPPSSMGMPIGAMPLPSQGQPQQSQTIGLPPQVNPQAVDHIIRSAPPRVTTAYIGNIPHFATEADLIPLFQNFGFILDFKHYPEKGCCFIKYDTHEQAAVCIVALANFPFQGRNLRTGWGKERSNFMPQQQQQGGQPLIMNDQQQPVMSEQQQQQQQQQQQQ

[11] = target: ENSTNIG00000011257 (Tetraodon nigroviridis) (UniProt H3D110); settings: 20 nM protein, 1.5 uM RNA pool; 20 mM HEPES pH 7.8, 70 mM KCl, 10 mM NaCl, 10% glycerol, 2 mM DTT, 0.1 ug/uL BSA; 30 min, 4 C
Chain of ENSTNIG00000011257 (Tetraodon nigroviridis) (H3D110 entry or part of it): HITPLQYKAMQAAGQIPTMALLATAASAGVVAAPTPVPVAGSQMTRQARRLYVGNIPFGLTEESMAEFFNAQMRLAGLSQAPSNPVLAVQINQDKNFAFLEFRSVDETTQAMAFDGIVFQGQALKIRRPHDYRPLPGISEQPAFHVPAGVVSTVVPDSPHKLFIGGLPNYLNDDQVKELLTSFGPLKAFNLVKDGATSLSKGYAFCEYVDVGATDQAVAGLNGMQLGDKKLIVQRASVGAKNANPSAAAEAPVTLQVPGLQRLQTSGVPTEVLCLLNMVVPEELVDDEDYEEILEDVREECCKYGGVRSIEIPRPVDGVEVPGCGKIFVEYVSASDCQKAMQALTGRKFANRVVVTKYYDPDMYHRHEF

[12] = target: hnrnpa0b (Danio rerio) (UniProt A0A8M1PHH6); settings: 20 nM protein, 1.5 uM RNA pool; 20 mM HEPES pH 7.8, 70 mM KCl, 10 mM NaCl, 10% glycerol, 2 mM DTT, 0.1 ug/uL BSA; 30 min, 4 C
Chain of hnrnpa0b (Danio rerio) (A0A8M1PHH6 entry or part of it): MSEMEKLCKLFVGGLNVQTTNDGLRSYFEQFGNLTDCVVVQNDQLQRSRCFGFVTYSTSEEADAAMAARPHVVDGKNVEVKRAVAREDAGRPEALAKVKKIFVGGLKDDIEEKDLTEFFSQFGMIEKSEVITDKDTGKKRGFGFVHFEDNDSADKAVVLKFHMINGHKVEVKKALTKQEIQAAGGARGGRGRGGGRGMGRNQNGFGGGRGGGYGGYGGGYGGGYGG

For UGAAUGA [RNAcompete motif RNCMPT01664], the binding signal (z-score (mean of top ten 7-mers)) [1] was 9.7.

For AACAAC [RNAcompete motif RNCMPT01680], the binding signal (z-score (mean of top ten 7-mers)) [2] was 9.74.

For GUAGUU [RNAcompete motif RNCMPT00040], the binding signal (z-score (mean of top ten 7-mers)) [3] is given as 12.5.

Work on UUUUUCC [RNAcompete motif RNCMPT01670] yielded a binding signal (z-score (mean of top ten 7-mers)) [4] of 10.4.

UAUUAUU [RNAcompete motif RNCMPT00837] showed a binding signal (z-score (mean of top ten 7-mers)) [5] of 13.

Sequence GAGUGUG [RNAcompete motif RNCMPT01677] has a binding signal (z-score (mean of top ten 7-mers)) [6] of 9.92.

In the case of UGUGUG [RNAcompete motif RNCMPT00004], the binding signal (z-score (mean of top ten 7-mers)) [7] is given as 7.26.

In the case of UAGUUAG [RNAcompete motif RNCMPT00041], the binding signal (z-score (mean of top ten 7-mers)) [8] is listed as 9.05.

In the case of GCUUGC [RNAcompete motif RNCMPT00038], the binding signal (z-score (mean of top ten 7-mers)) [9] is given as 11.2.

Sequence UUUUUUU [RNAcompete motif RNCMPT01685] has a binding signal (z-score (mean of top ten 7-mers)) [10] of 11.6.

UUUUUU [RNAcompete motif RNCMPT01671] gave a binding signal (z-score (mean of top ten 7-mers)) [11] of 12.3.

UUAGAUAG [RNAcompete motif RNCMPT01667] showed a binding signal (z-score (mean of top ten 7-mers)) [12] of 9.2.
